Measured values taken from patent publication US20250043302A1, “MUTATED HYDROXYPHENYLPYRUVATE DIOXYGENASE POLYPEPTIDE, AND CODING GENE AND USE THEREOF” (BEIJING DABEINONG BIOTECHNOLOGY CO., LTD., priority 2021, published 2025).

Experiments:
Assay type in all cases: in vivo
[1] = tested on: Arabidopsis thaliana T1 plants; assay: Topramezone tolerance of transgenic Arabidopsis thaliana T1 plants (spray, bleached leaf area grade, damage score); details: 7 DAT, Table 4; for Classification and statistics of the grade of pesticide damage: Grade 0 / Classification and statistics of the grade of pesticide damage: Grade 1 / Classification and statistics of the grade of pesticide damage: Grade 2 / Classification and statistics of the grade of pesticide damage: Grade 3: number of plants; for Scores: pesticide damage score 0-100
Outline: (§1)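 T1 transformants selected by glufosinate; 18-day-old plants, with empty-vector and wild-type controls, sprayed with topramezone (25–200 g ai/ha), isoxaflutole (35–280 g ai/ha) or mesotrione (52.5–420 g ai/ha), water as 0×. Bleached leaf area fraction scored at 7 DAT as grades 0–3.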

[2] = tested on: Arabidopsis thaliana T1 plants; assay: Isoxaflutole tolerance of transgenic Arabidopsis thaliana T1 plants (spray, bleached leaf area grade, damage score); parameters: Scores (pesticide damage): scale not given here; details: spray, Arabidopsis thaliana T1 plants; for Classification and statistics of the grade of pesticide damage: Grade 0 (number of plants) / Classification and statistics of the grade of pesticide damage: Grade 1 (number of plants) / Classification and statistics of the grade of pesticide damage: Grade 2 (number of plants) / Classification and statistics of the grade of pesticide damage: Grade 3 (number of plants): 16 plants
Outline: as §1

[3] = tested on: Arabidopsis thaliana T1 plants; assay: Mesotrione tolerance of transgenic Arabidopsis thaliana T1 plants (spray, bleached leaf area grade, damage score); parameters: Scores: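 damage score 0-100 computed as Σ(N×S)/(T×M)×100 over grades 0-3 with higher meaning more damage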; details: Arabidopsis thaliana T1 plants; for Grade 0 (classification and statistics of the grade of pesticide damage; number of plants) / Grade 1 (classification and statistics of the grade of pesticide damage; number of plants) / Grade 2 (classification and statistics of the grade of pesticide damage; number of plants) / Grade 3 (classification and statistics of the grade of pesticide damage; number of plants): 16 plants
Outline: as §1

[4] = isoxaflutole 35 g ai/ha (0.5x field concentration)
[5] = isoxaflutole 70 g ai/ha (1x field concentration)

B1: AtHPPDm-F372A-F383W-02: nucleotide sequence encoding Arabidopsis thaliana HPPD with F372A+F383W; vector DBN11733 (nucleic acid)
DNA: ATGGGACATCAGAATGCTGCTGTATCAGAAAATCAAAATCATGATGATGGAGCCGCCTCCTCACCAGGGTTTAAGTTGGTTGGGTTCTCCAAGTTTGTACGGAAGAACCCAAAATCCGACAAGTTCAAGGTTAAACGCTTCCACCACATTGAATTCTGGTGCGGCGACGCCACCAATGTTGCTCGGCGTTTTTCATGGGGTTTAGGCATGAGATTCTCAGCAAAGAGTGACCTGAGCACCGGCAACATGGTTCATGCTAGCTATCTCTTAACATCTGGAGATTTGAGGTTTCTTTTCACGGCGCCGTACTCACCATCACTCTCCGCCGGCGAGATCAAACCCACCACGACTGCAAGCATACCTTCATTTGATCATGGTAGTTGCAGATCCTTCTTCTCGTCGCACGGCCTAGGGGTGCGCGCGGTCGCCATCGAAGTTGAAGATGCAGAATCAGCGTTTAGTATCAGCGTGGCAAATGGAGCTATTCCTTCCTCCCCTCCAATTGTCCTCAATGAGGCTGTAACTATTGCCGAGGTGAAGTTGTATGGAGATGTTGTGCTGAGATATGTTTCTTACAAGGCAGAGGACACTGAGAAATCTGAATTTTTGCCTGGTTTTGAAAGGGTCGAGGATGCTTCAAGTTTTCCTCTTGATTACGGCATACGACGGTTGGATCACGCGGTTGGAAATGTACCAGAACTTGGGCCGGCGCTCACTTATGTGGCTGGTTTCACTGGATTCCATCAATTTGCTGAGTTCACAGCTGATGATGTTGGGACTGCTGAAAGTGGGTTGAACTCTGCAGTCCTCGCCTCTAATGATGAAATGGTGCTCCTCCCGATCAACGAGCCTGTGCATGGCACCAAAAGGAAATCACAAATACAGACATATCTTGAGCACAATGAAGGTGCAGGGCTTCAACATCTTGCACTGATGTCTGAAGACATTTTCCGTACGCTGAGAGAGATGAGGAAGAGAAGTAGTATTGGTGGATTTGACTTCATGCCTTCTCCCCCACCAACTTACTACCAGAACTTGAAGAAGAGGGTTGGTGATGTGCTATCTGATGACCAGATCAAGGAGTGTGAAGAATTGGGCATTCTTGTTGATCGGGACGACCAAGGAACATTACTGCAGATAGCCACAAAACCACTTGGTGACCGCCCCACTATTTGGATTGAGATCATACAAAGAGTCGGCTGCATGATGAAGGATGAGGAAGGAAAAGCATATCAATCTGGTGGTTGTGGCGGCTTTGGGAAAGGAAACTTCTCTGAGCTGTTCAAATCCATCGAGGAGTATGAGAAGACCTTGGAGGCCAAGCAGCTCGTGGGTTGA
modifications: AtHPPDm-F372A-F383W-02 Nucleotide Sequence
notes: vector DBN11733
- Classification and statistics of the grade of pesticide damage: Grade 0 ([1]; topramezone 25 g ai/ha (1×)): 9
- Classification and statistics of the grade of pesticide damage: Grade 1 ([1]; topramezone 25 g ai/ha (1×)): 7
- Classification and statistics of the grade of pesticide damage: Grade 2 ([1]; topramezone 25 g ai/ha (1×)): 0
- Classification and statistics of the grade of pesticide damage: Grade 3 ([1]; topramezone 25 g ai/ha (1×)): 0
- Classification and statistics of the grade of pesticide damage: Grade 0 ([1]; topramezone 100 g ai/ha (4×)): 6
- Classification and statistics of the grade of pesticide damage: Grade 1 ([1]; topramezone 100 g ai/ha (4×)): 7
- Classification and statistics of the grade of pesticide damage: Grade 2 ([1]; topramezone 100 g ai/ha (4×)): 1
- Classification and statistics of the grade of pesticide damage: Grade 3 ([1]; topramezone 100 g ai/ha (4×)): 2
- Scores ([1]; topramezone 25 g ai/ha (1×)): 15
- Scores ([1]; topramezone 100 g ai/ha (4×)): 31
- Resistance evaluation ([1]; topramezone 25 g ai/ha (1×)): highly
- Resistance evaluation ([1]; topramezone 100 g ai/ha (4×)): moderately
- Resistance evaluation [2, 4]: Highly
- Scores (pesticide damage) [2, 4]: 15
- Classification and statistics of the grade of pesticide damage: Grade 0 (number of plants) [2, 4]: 10
- Classification and statistics of the grade of pesticide damage: Grade 1 (number of plants) [2, 4]: 5
- Classification and statistics of the grade of pesticide damage: Grade 2 (number of plants) [2, 4]: 1
- Classification and statistics of the grade of pesticide damage: Grade 3 (number of plants) [2, 4]: 0
- Resistance evaluation [2, 5]: Moderately
- Scores (pesticide damage) [2, 5]: 29
- Classification and statistics of the grade of pesticide damage: Grade 0 (number of plants) [2, 5]: 5
- Classification and statistics of the grade of pesticide damage: Grade 1 (number of plants) [2, 5]: 9
- Classification and statistics of the grade of pesticide damage: Grade 2 (number of plants) [2, 5]: 1
- Classification and statistics of the grade of pesticide damage: Grade 3 (number of plants) [2, 5]: 1
- Resistance evaluation ([3]; mesotrione 52.5 g ai/ha): Moderately
- Scores ([3]; mesotrione 52.5 g ai/ha): 21
- Grade 0 (classification and statistics of the grade of pesticide damage; number of plants) ([3]; mesotrione 52.5 g ai/ha): 8
- Grade 1 (classification and statistics of the grade of pesticide damage; number of plants) ([3]; mesotrione 52.5 g ai/ha): 6
- Grade 2 (classification and statistics of the grade of pesticide damage; number of plants) ([3]; mesotrione 52.5 g ai/ha): 2
- Grade 3 (classification and statistics of the grade of pesticide damage; number of plants) ([3]; mesotrione 52.5 g ai/ha): 0
- Resistance evaluation ([3]; mesotrione 105 g ai/ha): Poorly resistant
- Scores ([3]; mesotrione 105 g ai/ha): 44
- Grade 0 (classification and statistics of the grade of pesticide damage; number of plants) ([3]; mesotrione 105 g ai/ha): 2
- Grade 1 (classification and statistics of the grade of pesticide damage; number of plants) ([3]; mesotrione 105 g ai/ha): 8
- Grade 2 (classification and statistics of the grade of pesticide damage; number of plants) ([3]; mesotrione 105 g ai/ha): 5
- Grade 3 (classification and statistics of the grade of pesticide damage; number of plants) ([3]; mesotrione 105 g ai/ha): 1
